Test results from article PMC7085345 (The Biochemical journal, 2019).
Like-named read-outs stand apart in the source and are kept apart here.

What was measured:
Assay in all cases: FRET or BRET
FRET or BRET [1] = molecular target: the molecule itself
FRET or BRET [2] = molecular target: the molecule itself; remark: listed apart in the source
FRET or BRET [3] = molecular target: the molecule itself; remark: listed apart in the source
FRET or BRET [4] = molecular target: the molecule itself; remark: listed apart in the source
FRET or BRET [5] = molecular target: the molecule itself; remark: listed apart in the source

B1: CYP2E1-BODIPY(1:2): N-terminally truncated (Δ3–20), C-terminally His-tagged CYP2E1 labeled with BODIPY 577/618 maleimide at 1:2 protein-to-label ratio (enzyme, human, UniProt P05181 1-493, looked up)
chain: MSSMWRQVHSSWNLPPGPFPLPIIGNLFQLELKNIPKSFTRLAQRFGPVFTLYVGSQRMVVMHGYKAVKEALLDYKDEFSGRGDLPAFHAHRDRGIIFNNGPTWKDIRRFSLTTLRNYGMGKQGNESRIQREAHFLLEALRKTQGQPFDPTFLIGCAPCNVIADILFRKHFDYNDEKFLRLMYLFNENFHLLSTPWLQLYNNFPSFLHYLPGSHRKVIKNVAEVKEYVSERVKEHHQSLDPNCPRDLTDCLLVEMEKEKHSAERLYTMDGITVTVADLFFAGTETTSTTLRYGLLILMKYPEIEEKLHEEIDRVIGPSRIPAIKDRQEMPYMDAVVHEIQRFITLVPSNLPHEATRDTIFRGYLIPKGTVVVPTLDSVLYDNQEFPDPEKFKPEHFLNENGKFKYSDYFKPFSTGKRVCAGEGLARMELFLLLCAILQHFNLKPLVDPKDIDLSPIHIGFGCIPPRYKLCVIPRS
modifications: BODIPY 577/618 maleimide on cysteines, two molar equivalents (presumably Cys488 and Cys261, Cys268 and/or Cys480)
In the case of B1, the “(Lipid/CYP2E1)50%” value (FRET or BRET [1]) is reported as 4320 lipid-to-P450 molar ratio, the “(Lipid/CYP2E1)50%” value (FRET or BRET [2]) is reported as 5890 lipid-to-P450 molar ratio and the “(Lipid/CYP2E1)50%” value (FRET or BRET [3]) is reported as 2440 lipid-to-P450 molar ratio. The “(Lipid/CYP2E1)50%” value (FRET or BRET [4]) was 393 lipid-to-P450 molar ratio and the “(Lipid/CYP2E1)50%” value (FRET or BRET [5]) was 383 lipid-to-P450 molar ratio.
